Data taken from paper PMC2752815.

Target: mouse βB1-crystallin (mouse) (UniProt Q9WVJ5)
Assay: AUC

Substance: mouse βB1-crystallin (from UniProt Q9WVJ5 1-250) (natural protein)
- Kd: 1550 nM
- stoichiometry N: 2
